Laboratory results reported in patent US9486502B2, “Methods of administering interferon gamma to absorb fluid from the subretinal space” (The United States of America, as represented by the …, priority 2008, dated 2016).
“Also recorded” adds a separate entry of the source.

How the values were obtained:
Format in all cases: cell-based, human
hfRPE cells [1] = test: wound healing assay, hfRPE migration; conditions: 48 hours, proliferation suppressed with mitomycin C
Experimental: The wound healing assay was used to study the effects of inflammatory cytokines on hfRPE cell migration, as described previously in Li, R., et al. Invest Ophthalmol Vis Sci, 2007, 48, 5722-5732, incorporated herein by reference in its entirety. Cell proliferation was suppressed by incubation with 10 μg/ml mitomycin C (Sigma) for 2 hours before all migration experiments. A circular denuded area (7 mm in diameter) was made in each well using a custom designed cell scraper. After incubation with various inflammatory cytokines for 48 hours, cells were fixed with cold methanol and stained with ethidium homodimer-1 (EthD-1, Invitrogen) according to the manufacturer's instructions. Cell migration was quantified by counting the average number of cells that migrated into the denuded area in 16 microscope fields surrounding the circumference of the denuded area. Each condition was tested in triplicate and repeated using cells from different donors.

hfRPE cells [2] = test: immunoblotting of JAK-STAT / MAP kinase signalling proteins in hfRPE
Experimental: Immunoblotting was performed as previously described in Li, R. et al., 2007, Invest Ophthalmol Vis Sci, 48, 5722-5732, incorporated by reference in its entirety herein. Primary cultures of hfRPE and native human adult RPE cells were lysed using RIPA buffer (Sigma-Aldrich) supplemented with proteinase inhibitor cocktail (Roche). Total protein in the supernatant was measured (BCA™ protein assay, Pierce Biotechnology) and 20 µg of protein from cell lysate supernatants was electrophoresed on a 4-12% gradient Bis-Tris NuPAGE gel (Invitrogen) under reduced or non-reduced conditions. Resolved proteins were transferred to nitrocellulose membranes (membranes and XCell II™ Blot Module, Invitrogen).
The membranes were incubated with mouse anti-human IFNγ R1 monoclonal antibody (R&D Systems), anti-human IFNγ R2 (Santa Cruz Biotechnology), anti-human IFNAR1, anti-human IFNAR2 (Abcam), anti-IRF1, anti-IRF2, anti-IRF8 (Santa Cruz Biotechnology) or anti-CFTR antibody 217 (Cystic Fibrosis Foundation Therapeutics Inc., Bethesda, Md.), after blocking non-specific binding ((StartingBlock™ T20 (TBS), Pierce Biotechnology). Membranes were then incubated with horseradish peroxidase (HRP) conjugated secondary antibody (Pierce Biotechnology) and visualized using Supersignal® West Dura Extended Duration Substrate (Pierce Biotechnology) and imaged using an Autochemie™ system (UVP, Upland, Calif.). The antibody-specific bands for IRF-1, IRF-2, ICSBP (IRF-8) and GAPDH were around 91 kDa, […], respectively.
For phosphorylation studies, cells were starved for 24 hours in serum-free medium (“SFM,” MEM-α modification medium containing non-essential amino acids and Glutamine-Penicillin-Streptomycin). Cells were treated with IFNγ (5-50 ng/ml) in SFM at various time points at 37° C. and lysed with RIPA buffer supplemented with proteinase inhibitor cocktail (Roche) and Halt™ phosphatase inhibitor cocktail (Pierce Biotechnology). 40 μg of protein was electrophoresed. As in the immunoblotting experiments described above, except that the membranes were incubated with anti-phospho-p38 MAP kinase (Thr180/Tyr182), anti-p38 MAP kinase, anti-phospho-Stat1 (Tyr701), anti-phospho-Stat1 (Ser727) or anti-Stat1 antibodies, respectively (each from Cell signaling Technology, Danvers, Mass.). The antibody-specific bands for STAT1/phospho-STAT1 (Tyr701) were around 84 kDa. GAPDH was blotted together with anti-GAPDH antibody (Abcam) and used as loading control. Cyclohexamide (“CHX”; Sigma-Aldrich), a protein synthesis inhibitor, was used at 62 μM.
For CFTR immunoblotting analysis, confluent monolayers of hfRPE were homogenized on ice in isolation solution (250 mM Sucrose, 10 mM Tris-HCl, 10 mM MgCl2, 1 mM CaCl2, pH 7.4) supplemented with Halt™ protease inhibitor cocktail, EDTA-free. Nuclei and intact cells were removed with centrifugation (900×g for 10 minutes at 4° C., followed by centrifugation at 10,000×g for 5 minutes). Crude plasma membrane proteins were collected after centrifugation at 100,000×g for 1 hour at 4° C.

hfRPE cells [3] = test: BrdU incorporation assay, hfRPE proliferation
Experimental: BrdU incorporation was performed as described in Li, R. et al., 2007, Invest Ophthalmol Vis Sci, 48, 5722-5732, incorporated by reference in its entirety herein. IFNγ, TNFα, and IL-1β were obtained from Peprotech, Rocky Hill, N.J., and Universal Type I Interferon (cat: 11200-1) or human interferon beta la were from PBL biomedical laboratories (New Brunswick, N.J.). Cumulative effects were measured by adding VEGF165, EGF and bFGF (Peprotech), and PDGF-BB (R & D Systems) with IFNγ. Anti-human IFNγ R1 blocking antibody (R & D Systems, Minneapolis, Minn.), JAK inhibitor I, AG490, or JAK3 inhibitor II (EMD Biosciences, Gibbstown, N.J.) was added to the cells one hour prior to the addition of IFNγ. SFM was used as the negative control and SFM supplemented with 5% serum was used as positive control. After treatment for 48 hours, RPE cells were incubated with BrdU for 24 hours. The proliferation rate was evaluated using a Cell proliferation ELISA BrdU Kit (Roche, Ind.). Quadruplicate wells were used for each condition and the experiments were repeated at least two times using cell cultures from different donors. Cell viability was evaluated using a Live/Dead Viability/Cytotoxicity Kit (Invitrogen).

B1: IFNγ: pleiotropic cytokine produced by T- and NK-cells; obtained from Peprotech (protein, UniProt P01579 24-161, looked up)
Interferon gamma: QDPYVKEAENLKKYFNAGHSDVADNGTLFLGILKNWKEESDRKIMQSQIVSFYFKLFKNFKDDQSIQKSVETIKEDMNVKFFNSNKKKRDDFEKLTNYSVTDLNVQRKAIHELIQVMAELSPAAKTGKRKRSQMLFRG
- effect on hfRPE cell migration (hfRPE cells [1]): significantly inhibited
- STAT1 tyrosine phosphorylation (hfRPE cells [2]; IFNγ 5 ng/ml, 15 minutes): tyrosine phosphorylated
- IRF-1 protein (hfRPE cells [2]; IFNγ 4 hours): activated; also recorded: significantly increased
- IRF-2 protein (hfRPE cells [2]; IFNγ 4 hours): unaffected; also recorded: no effect
- IRF-8 (ICSBP) protein (hfRPE cells [2]; IFNγ-treated hfRPE): below the detection limit; also recorded: no detectable change
- effect on CFTR protein level (hfRPE cells [2]; IFNγ-treated hfRPE, not statistically significant): small decrease
- STAT1 protein signal (hfRPE cells [2]; after IFNγ treatment): significantly increased; also recorded: significantly up-regulated
- effect on JNK or P44/P42 phosphorylation (hfRPE cells [2]; all six time points tested): no effect
- period over which IFNγ-induced phosphorylation of STAT1 was observed (hfRPE cells [2]; hfRPE): 2 to 48 h
- time to IFNγ-induced phosphorylation of P38 MAPK (hfRPE cells [2]; hfRPE, serum starved 24 hours): 2 to 5 min
- effect on hfRPE proliferation (BrdU incorporation) (hfRPE cells [3]; 0.5-80 ng/ml): strong inhibitory effect
- effect on hfRPE proliferation induced by bFGF, PDGF-BB, VEGF (hfRPE cells [3]; IFNγ 5 ng/ml): significantly inhibited
- effect on hfRPE cell proliferation (hfRPE cells [3]; IFNγ alone 5 ng/ml, 5% FBS or 0% FBS): significantly inhibited
- concentration as low as which hfRPE proliferation was inhibited (hfRPE cells [3]; other experiments, data not shown): 0.02 ng/mL
